In article PMC12468279, “VEGF-VEGFR Signaling Mechanism Directs the Migration of Newborn Hemocytes from the Hematopoietic Site of Oyster Crassostrea gigas” (Cells, 2025):

Target: T1, recombinant PDGF domain of CgVEGF with a GST tag (rCgVEGF) (Crassostrea gigas, biotin (biotinylated; site not stated))
T1 chain: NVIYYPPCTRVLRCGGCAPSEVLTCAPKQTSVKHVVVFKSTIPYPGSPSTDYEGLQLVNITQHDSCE
Assay: BLI; Octet K2 (ForteBio); biotinylated rCgVEGF immobilised on streptavidin biosensors; rCgVEGFR in solution at 1150, 1125, 843.75, 632.81 and 474.61 ug/mL; global fit to a 1:1 binding model; rTrx as control analyte
Conditions: both partners purified

Kd: 879 nM
B1: recombinant extracellular domain of CgVEGFR with a Trx tag (rCgVEGFR) (domain or fragment)
chain: QLVVVEETDCLKRPCRNGGSCDDIDGDGNFTCGCLPQWSGHFCELDTNECLNPPCEHGGTCTNSHGGYFCACTEIWTGKNCEEFKRVTIVDPKPTMEIYPERERVDSENGSIYTSSGDIVLNSGENFTIECFGDYPIKLTFKSDRVAEAPDYLGMDIIRRPIANMSQNARAFGVIYLVSNPTYKYTGEYVCQYTENSLHTSKYIYIRDEDNLFLEKNKYPGVPIFKNSYLFEPLILPCHVSDPEADVKLLTNWGTEVQLPDSPITYDPKTGFLIEFPSYSFVGPFRCAASVNNGMMQTISYYVTFNVEYKPSPTLLPLGDLEIVLGEDFELRCQVTVPLSVQSVSIQWMYSSNENNVSLPISALMIAPGQRSDRVRFTRPVEDTSMASDKSKTYFSNLTVMNGMKMDQGRYTCNVTTGRSQSTAVSKNVILVGDGLLEIQQCKKGQEIADFRGNWTVITQEQQIGVQISCLIKSMPYPKVTWYFKGEELNFKNSTVSQRYNPTMLNTTRTLTNISLSIMLPGKEQVGLYEIIVEAGTKREYAHFQLVYQYKPVVLIPAINKDVPYLLPNTRYNVRALVSAVPPATSQGWLWQPCGELPSCKQNSNSWRNVTSDNYQRFNQSGHLKYYATNSKGTGEYVMKIKVAEYETGLGIHIDQEKPSIIQTFPLHVTCTATKWEYSNVKVVFWGETDSYWRDVNIQNGTTLLSHNTSLSWISELRIENFAPENVGLYGCEVDISSNSSKGHLSTGDALRVQMISLEKPVFTKNTLTDSVVETNMGHSYHVMDCSARGVPAPSIQWFKDGQLLNFTSEFLGLSLSDDNTSLTINKTDVVHSGIYVCEVENMNGVIYKNVTLQIKSSLQSQKLKTKVEKGT
